For eight molecules, Kd results are on record in paper PMC12261273, “Refinement and Truncation of DNA Aptamers Based on Molecular Dynamics Simulations: Computational Protocol and Experimental Validation”.

One may read the Kd as the concentration at which binding is half-saturated.

Data set [1] relates to collagen XI 10-mer peptide (non-helical C-telopeptide fragment). Nature of the data set: chronoamperometry (magnetic beads). As to conditions: RT (electrochemistry), pH 7.4, PSA-1, B4 and truncations: 1x PBS (10 mM phosphate, 154 mM NaCl), 24nt variants: 10 mM Tris-HCl, 150 mM NaCl, 5 mM KCl.
Data set [2] relates to 33-mer immunodominant gluten (gliadin) peptide. Nature of the data set: SPR. As to conditions: RT (electrochemistry), pH 7.4, PSA-1, B4 and truncations: 1x PBS (10 mM phosphate, 154 mM NaCl), 24nt variants: 10 mM Tris-HCl, 150 mM NaCl, 5 mM KCl.
Data set [3] has the same test system. Nature of the data set: chronoamperometry. As to conditions: RT (electrochemistry), pH 7.4, PSA-1, B4 and truncations: 1x PBS (10 mM phosphate, 154 mM NaCl), 24nt variants: 10 mM Tris-HCl, 150 mM NaCl, 5 mM KCl.
Data set [4] deals with T1, prostate specific antigen (PSA) (human, UniProt P07288 25-261). The data set can be described thus: chronoamperometry; 5 mM MgCl2; RT (electrochemistry), pH 7.4; PSA-1, B4 and truncations: 1x PBS (10 mM phosphate, 154 mM NaCl); 24nt variants: 10 mM Tris-HCl, 150 mM NaCl, 5 mM KCl, 5 mM MgCl2; Gli1 series: 50 mM Tris-HCl, 250 mM NaCl, 5 mM MgCl2. As to conditions: protein: native; label: 5' 6FAM; hairpin.
T1 sequence (P07288 25-261): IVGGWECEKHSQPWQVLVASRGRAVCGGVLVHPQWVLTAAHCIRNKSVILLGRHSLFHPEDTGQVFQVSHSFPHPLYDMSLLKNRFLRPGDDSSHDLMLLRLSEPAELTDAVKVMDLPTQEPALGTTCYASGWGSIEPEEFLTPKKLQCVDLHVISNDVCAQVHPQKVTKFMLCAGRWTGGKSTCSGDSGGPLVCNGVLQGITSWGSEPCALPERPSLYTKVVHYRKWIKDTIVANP

The target of data set [5] is T1, prostate specific antigen (PSA). Nature of the data set: SPR; 5 mM MgCl2; RT (electrochemistry), pH 7.4; PSA-1, B4 and truncations: 1x PBS (10 mM phosphate, 154 mM NaCl); 24nt variants: 10 mM Tris-HCl, 150 mM NaCl, 5 mM KCl, 5 mM MgCl2; Gli1 series: 50 mM Tris-HCl, 250 mM NaCl, 5 mM MgCl2. As to conditions: protein: native; label: 5' 6FAM; hairpin. For orientation: SPR reads the build-up and loss of mass on a sensor chip optically.

The target is the same in data set [6]. Nature of the data set: SPR; RT (electrochemistry), pH 7.4; PSA-1, B4 and truncations: 1x PBS (10 mM phosphate, 154 mM NaCl); 24nt variants: 10 mM Tris-HCl, 150 mM NaCl, 5 mM KCl, 5 mM MgCl2; Gli1 series: 50 mM Tris-HCl, 250 mM NaCl, 5 mM MgCl2. As to conditions: protein: native; label: 5' 6FAM.
For data set [7] the target is unchanged. The data set can be described thus: chronoamperometry; RT (electrochemistry), pH 7.4; PSA-1, B4 and truncations: 1x PBS (10 mM phosphate, 154 mM NaCl); 24nt variants: 10 mM Tris-HCl, 150 mM NaCl, 5 mM KCl, 5 mM MgCl2; Gli1 series: 50 mM Tris-HCl, 250 mM NaCl, 5 mM MgCl2. As to conditions: protein: native; label: 5' 6FAM.

“TTTTTGACGCAAGAAATTCAGGGCACCTGGAACGACGCGTCGGCT [B4]” showed a dissociation constant (Kd) in data set [1] of 147 nM.
For the molecule “CTAGGCGAAATATAGCTACAACTGTCTGAAGGCACCCAAT [Gli1]”, the equilibrium dissociation constant (Kd) in data set [2] worked out at 155 nM; in data set [3], 136 nM.
On the same counts, the results for “CTAGGCGAAATATAGCTACAACTGTCTGA [Gli1T(1-29)]” are 71 nM and 86 nM.
“TTTTTATTCAGGGCACCTGGAACGACGCGTCGGCT [B4T(11-40)]” returned a Kd in data set [1] of 44 nM.
Take TTTTTAATTAAAGCTCGCCATCAAATAGCTTT (ssDNA) [5Ts-24nt-3Ts (deltaPSap4#5)]: the dissociation constant Kd in data set [4] is 152 ± 9 nM; in data set [5], 232 ± 4 nM.
Regarding TTTTTAATTAAAGCTCGCCATCAAATAGC (ssDNA) [5Ts-24nt], the dissociation constant Kd in data set [4] amounted to 460 ± 64 nM; in data set [5], 545 ± 24 nM.
For the molecule TTTTTTATTTAACCAAAAGTCTGGATTAACA (ssDNA) [PSA-1T(15-40)], the Kd in data set [6] was 130 ± 25 nM; in data set [7], 111 ± 9 nM.
Take TTTTTGGACGGTTGCGCTATATTTAACCAAAAGTCTGGATTAACA (ssDNA) [PSA-1]: the Kd worked out at 125 ± 21 nM in data set [6] and 348 ± 58 nM in data set [7].
